# In US20090123474A1, “COMBINATION OF ANGIOPOIETIN-2 ANTAGONIST AND OF VEGF-A, KDR AND/OR FLTL ANTAGONIST FOR TREATING CANCER” (ASTRAZENECA AB, priority 2005, published 2009):
# T1: Angiopoietin-1 (Homo sapiens, UniProt Q15389)
# T1 construct: purchased R&D Systems 293-AN-025/CF
# T1 sequence (Q15389 16-498): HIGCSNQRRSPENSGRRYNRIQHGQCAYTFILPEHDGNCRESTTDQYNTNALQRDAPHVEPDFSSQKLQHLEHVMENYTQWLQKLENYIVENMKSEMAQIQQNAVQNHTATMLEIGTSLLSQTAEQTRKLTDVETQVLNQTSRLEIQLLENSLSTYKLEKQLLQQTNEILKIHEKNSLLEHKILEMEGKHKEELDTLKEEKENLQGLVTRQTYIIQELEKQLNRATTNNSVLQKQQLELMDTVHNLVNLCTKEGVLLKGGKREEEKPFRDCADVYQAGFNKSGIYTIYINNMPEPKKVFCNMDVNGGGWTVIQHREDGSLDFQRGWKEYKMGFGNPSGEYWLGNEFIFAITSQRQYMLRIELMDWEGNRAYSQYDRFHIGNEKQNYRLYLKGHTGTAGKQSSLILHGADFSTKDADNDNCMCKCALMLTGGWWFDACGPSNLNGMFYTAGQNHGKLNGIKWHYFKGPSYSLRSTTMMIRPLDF
# B1: mAb 3.19.3: fully human anti-Angiopoietin-2 monoclonal antibody, variable regions SEQ ID NO: 5-8; also binds Angiopoietin-1 (antibody, V domains shown)
# VH: QVQLVESGGGVVQPGRSLRLSCAASGFTFTNYGMHWGRQAPGKGLEWVAVISHDGNNKYYVDSVKGRFTISRDNSKNTLYLQMNSLRAEDTAVYYCAREGIDFWSGLNWFDPWGQGTLVTVSSA
# VL: EIVLTQSPGTLSLSPGERATLSCRASQSITGSYLAWYQQKPGQAPRLLICGASSWATGIPDRFSGSGSGTDFTLTISRLEPEDFAVYYCQQYSSSPITFGQGTRLEIKR
# Legend:
# Angiopoietin-1 = target: T1, Angiopoietin-1; assay: Biacore (SPR) medium resolution screen of mAb binding to Angiopoietin-1
# Method: The cross-reactivity of the antibody to Angiopoietin-1 was further investigated by measuring the affinity of the mAbs to Angiopoietin-1. Instead of immobilizing Angiopoietin-1, as described in ELISA-based counter-binding, the mAbs were immobilized to the CM5 Biacore chips, and Angiopoietin-1 in solution was injected for the determination of the on-rate and off-rate. Six mAbs; 3.3.2, 3.31.2, 5.16.3, 5.86.1, 5.88.3 and 3.19.3 were tested.
# Label-free surface plasmon resonance (SPR), or Biacore 2000 instrumentation, was utilized to measure antibody affinity to Angiopoietin-1. For this purpose, a high-density goat α-human antibody surface over a CM5 Biacore chip was prepared using routine amine coupling. For developmental experiments, purified mAbs (clones 3.3.2, 3.31.2, 5.16.3, 5.86.1, 5.88.3 and 3.19.3) were diluted to approximately 2.5-3.5 μg/ml in HBS-P running buffer containing 100 μg/ml BSA. The capture level for each mAb was approximately 150 RU. A 5-minute wash followed each capture cycle to stabilize the mAb baseline. A single Angiopoietin-1 sample diluted to 87.4 nM in the running buffer was injected for one minute over all capture surfaces. […] This experiment was repeated by increasing the mAb capture levels to well over 500-600 RU and injecting 380 nM Angiopoietin-1 for one minute. Angiopoietin-1 was again found to bind mAb 3.19.3.
# [1] = test system: human HT29 colon tumour xenografts; assay: HT29 xenograft efficacy study; format: in vivo; conditions: AZD2171 1.5 mg/kg/day p.o. d 0-27, 3.19.3 10 mg/kg i.p. day 0, 3, 7, 10, 14, 17, 21 and 24
# Method: The efficacy of mAb 3.19.3 in combination with AZD2171 was evaluated in human HT29 xenografts. Briefly, 5×10^6 HT29 tumour cells in 0.1 ml of serum free Roswell Park Memorial Institute (RPMI)-1640 medium were injected subcutaneously into the flanks of 60 athymic (nu/nu genotype) mice. When tumours reached a volume of 200 to 400 mm^3 (9-10 days), mice were randomized into groups (8 per group) and treatment started (day 0).
# The control group (Group 1) received a daily oral (p.o.) administration of vehicle only for 28 consecutive days (day 0-27). Group 2 treatment consisted of a daily p.o. administration of AZD2171 alone at 1.5 mg/kg/administration for 28 consecutive days (day 0-27). AZD2171 was prepared as a suspension in 1% polysorbate 80 (i.e. a 1% (v/v) solution of polyoxyethylene (20) sorbitan mono-oleate in deionised water). […]
# Tumour volumes (mm^3) were assessed at least twice weekly by bilateral Vernier caliper measurement and, taking length to be the longest diameter across the tumor and width the corresponding perpendicular, calculated using the formula (π/6)×(length×width)×√ (length×width). Growth inhibition from the start of treatment was assessed by comparison of the differences in tumor volume between control and treated groups. […] For all mice, the tumours were excised and weights recorded upon termination of the study.
molecule,measurement,setting,value
B1,binding of Angiopoietin-1 to captured mAb,"Angiopoietin-1; 87.4 nM Angiopoietin-1, capture level approximately 150 RU",found to bind
same,binding of Angiopoietin-1 to captured mAb,"Angiopoietin-1; 380 nM Angiopoietin-1, capture levels over 500-600 RU",found to bind
same,Inhibition of Control Tumour Growth Day 28,[1],40%
